Test results: patent EP4596582A1 (Sichuan Kelun-Biotech Biopharmaceutical Co., Ltd., dated 2025)
Like-named read-outs stand apart in the source and are kept apart here.

B1: anti-human-B7-H3 chimeric antibody 20G11G6 (antibody, V domains shown)
VH: QVQLQESGPGLVKPSGTLSLTCAVSGGSNSSSNWWTWVRQSPGKGLEWIGEISPTGFTSYSPSLKSRVTISVDKSKTQFSLNLSSVTAADTAVYYCARDRLYFDFWGQGTLVTVSS
VL: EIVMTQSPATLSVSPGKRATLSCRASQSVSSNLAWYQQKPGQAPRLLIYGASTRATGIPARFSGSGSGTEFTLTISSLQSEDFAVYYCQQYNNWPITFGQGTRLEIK
notes: Purified from hybridoma of H2L2 transgenic mice: human variable regions with constant regions of rat origin
B2: anti-human-B7-H3 human antibody 2# (antibody, human IgG1, kappa, V domains shown)
VH: B1 VH
VL: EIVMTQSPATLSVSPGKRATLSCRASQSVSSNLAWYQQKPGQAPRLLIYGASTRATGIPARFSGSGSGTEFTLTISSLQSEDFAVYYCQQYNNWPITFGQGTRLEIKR
notes: also called 20G11G6/2#

What was measured:
[1] = biological target: T1, monkey B7-H3-4Ig-His protein (monkey); experiment: ELISA, antigen coated at 1 ug/ml
T1 chain: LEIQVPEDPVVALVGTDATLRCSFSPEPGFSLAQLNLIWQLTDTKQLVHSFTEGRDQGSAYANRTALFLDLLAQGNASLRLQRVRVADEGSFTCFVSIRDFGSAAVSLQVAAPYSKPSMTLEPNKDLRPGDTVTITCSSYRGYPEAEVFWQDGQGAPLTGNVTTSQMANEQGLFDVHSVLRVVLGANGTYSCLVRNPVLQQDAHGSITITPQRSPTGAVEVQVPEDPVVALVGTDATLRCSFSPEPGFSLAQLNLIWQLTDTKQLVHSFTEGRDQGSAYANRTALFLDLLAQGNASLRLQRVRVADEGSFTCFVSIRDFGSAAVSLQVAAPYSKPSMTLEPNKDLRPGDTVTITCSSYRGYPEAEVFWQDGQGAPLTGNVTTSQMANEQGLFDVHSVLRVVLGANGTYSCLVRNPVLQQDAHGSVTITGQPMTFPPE

[2] = biological target: T2, human B7-H3-4Ig-His protein (human, UniProt Q5ZPR3 29-466); experiment: ELISA, antigen coated at 1 ug/ml
T2 construct: extracellular domain; Made in HEK293-EBNA cells
T2 sequence: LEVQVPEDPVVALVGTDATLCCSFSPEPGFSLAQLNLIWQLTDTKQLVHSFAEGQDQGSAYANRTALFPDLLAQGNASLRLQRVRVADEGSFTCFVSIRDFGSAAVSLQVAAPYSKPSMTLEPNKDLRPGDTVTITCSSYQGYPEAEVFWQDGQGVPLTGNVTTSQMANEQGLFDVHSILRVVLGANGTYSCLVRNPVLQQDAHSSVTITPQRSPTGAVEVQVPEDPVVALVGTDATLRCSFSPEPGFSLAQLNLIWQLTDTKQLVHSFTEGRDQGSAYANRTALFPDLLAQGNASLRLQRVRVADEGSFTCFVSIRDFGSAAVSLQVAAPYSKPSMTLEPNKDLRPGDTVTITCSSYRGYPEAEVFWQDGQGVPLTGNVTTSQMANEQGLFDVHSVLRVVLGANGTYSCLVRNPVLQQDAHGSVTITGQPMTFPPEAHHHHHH

[3] = biological target: T3, human B7-H3 on human tumor cells (MCF-7, HT29, NCI-N87, HCC1806, HCC827) (human, UniProt Q5ZPR3 29-534); experiment: flow cytometry on MCF-7 cells
T3 construct: whole, on cells
T3 sequence (looked up): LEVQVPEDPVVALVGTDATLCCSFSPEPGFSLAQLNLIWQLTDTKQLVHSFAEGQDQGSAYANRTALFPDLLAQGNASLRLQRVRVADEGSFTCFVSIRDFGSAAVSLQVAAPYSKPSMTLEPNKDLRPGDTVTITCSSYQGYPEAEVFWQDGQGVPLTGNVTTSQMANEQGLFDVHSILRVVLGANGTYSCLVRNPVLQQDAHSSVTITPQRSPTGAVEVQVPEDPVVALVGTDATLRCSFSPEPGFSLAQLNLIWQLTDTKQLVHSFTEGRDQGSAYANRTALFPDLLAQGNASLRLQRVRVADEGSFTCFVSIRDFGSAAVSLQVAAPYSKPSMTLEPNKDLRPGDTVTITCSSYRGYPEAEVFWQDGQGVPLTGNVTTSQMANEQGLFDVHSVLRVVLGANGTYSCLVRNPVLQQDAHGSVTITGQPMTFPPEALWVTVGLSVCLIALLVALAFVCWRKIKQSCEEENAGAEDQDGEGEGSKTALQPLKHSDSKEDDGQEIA

[4] = biological target: T1, monkey B7-H3-4Ig-His protein; experiment: ELISA, antigen coated at 1 ug/ml
[5] = biological target: T2, human B7-H3-4Ig-His protein; experiment: ELISA, antigen coated at 1 ug/ml; remark: listed apart in the source

Row | Binder | EC50 [1] [µg/mL] | EC50 [2] [µg/mL] | EC50 [3] [µg/mL] | EC50 [4] [µg/mL] | EC50 [5] [µg/mL]
1 | B1 | 0.0213 | 0.0165 | 0.228 |  | 
2 | B2 |  |  |  | 0.00394 | 0.00297
